Legend:
[1] = molecular target: T1, sortilin on the surface of U-251 and PC-3 cells (human (endogenous in U-251 and PC-3), UniProt Q99523 78-831); test: cell-based or functional assay
T1 sequence (looked up): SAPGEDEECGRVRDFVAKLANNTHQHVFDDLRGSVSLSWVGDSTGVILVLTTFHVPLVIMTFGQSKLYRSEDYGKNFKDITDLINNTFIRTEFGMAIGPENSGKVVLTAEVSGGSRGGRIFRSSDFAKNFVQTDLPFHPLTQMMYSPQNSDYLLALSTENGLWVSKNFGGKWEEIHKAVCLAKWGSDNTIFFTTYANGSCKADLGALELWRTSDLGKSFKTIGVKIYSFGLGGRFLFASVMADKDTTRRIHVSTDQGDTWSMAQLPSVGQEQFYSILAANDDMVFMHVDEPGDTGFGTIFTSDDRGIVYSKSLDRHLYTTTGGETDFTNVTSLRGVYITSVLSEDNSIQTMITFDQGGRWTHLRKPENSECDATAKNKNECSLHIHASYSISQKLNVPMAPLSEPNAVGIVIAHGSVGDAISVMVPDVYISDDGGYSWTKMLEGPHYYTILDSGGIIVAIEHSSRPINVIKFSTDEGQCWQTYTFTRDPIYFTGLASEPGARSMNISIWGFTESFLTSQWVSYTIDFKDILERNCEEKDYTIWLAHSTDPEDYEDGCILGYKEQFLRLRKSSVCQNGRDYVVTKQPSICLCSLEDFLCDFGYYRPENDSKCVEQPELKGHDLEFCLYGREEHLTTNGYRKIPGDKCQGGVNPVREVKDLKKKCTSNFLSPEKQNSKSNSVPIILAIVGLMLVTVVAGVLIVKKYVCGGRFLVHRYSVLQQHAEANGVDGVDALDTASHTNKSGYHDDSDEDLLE

[2] = molecular target: T2, human sortilin (R&D Systems, 3154-ST) (human, UniProt Q99523 78-755); test: SPR; Biacore 8K, affinity determination of second-generation constructs; 30-100 RU of ABD035-containing constructs captured on immobilised HSA (CM5); 1-200 nM human sortilin injected 180 s at 30 µl/min, 25°C, PBST; 60 min dissociation; 1:1 Langmuir fit; apparent constants; n=3 technical replicates; conditions: both partners purified
T2 construct: sortilin, human, recombinant protein bought from R&D Systems (3154-ST); also called hSort; SORT1; source: bought: R&D Systems (3154-ST)
T2 sequence (looked up): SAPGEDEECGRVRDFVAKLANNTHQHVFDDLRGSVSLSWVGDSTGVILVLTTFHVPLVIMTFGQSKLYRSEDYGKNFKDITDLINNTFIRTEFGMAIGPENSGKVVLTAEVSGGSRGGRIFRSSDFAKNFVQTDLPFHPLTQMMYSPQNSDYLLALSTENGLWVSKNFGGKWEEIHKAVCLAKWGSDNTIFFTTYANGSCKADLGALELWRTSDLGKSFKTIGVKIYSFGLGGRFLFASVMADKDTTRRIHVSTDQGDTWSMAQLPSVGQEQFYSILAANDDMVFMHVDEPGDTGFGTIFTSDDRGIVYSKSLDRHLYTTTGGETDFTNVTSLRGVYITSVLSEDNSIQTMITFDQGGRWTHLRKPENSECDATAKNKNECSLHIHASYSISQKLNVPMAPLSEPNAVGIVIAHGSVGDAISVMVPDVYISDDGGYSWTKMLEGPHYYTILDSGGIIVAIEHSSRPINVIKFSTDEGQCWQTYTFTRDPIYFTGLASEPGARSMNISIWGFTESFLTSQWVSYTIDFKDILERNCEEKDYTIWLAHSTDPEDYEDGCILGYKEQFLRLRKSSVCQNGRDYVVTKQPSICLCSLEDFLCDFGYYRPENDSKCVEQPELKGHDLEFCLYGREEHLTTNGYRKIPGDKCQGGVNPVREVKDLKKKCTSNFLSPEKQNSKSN

- PGRN clearance assay: fold increase of extracellular PGRN (ELISA) against untreated U-251 cells after 72 h, at the highest tested concentration (500 nM); no plateau, no EC50 [1]: ≤ 1.44 fold
- Kd [2]: 15.9 nM
- koff [2]: 0.00337 s⁻¹
- kon [2]: 212000 M⁻¹ s⁻¹
B1: ABD-PGRNC21* (His6-ABD035-PGRNC21*) (peptide, UniProt P28799 573-593, looked up)
chain: LRREAPRWDAPLRDPGLRQLL
notes: progranulin (PGRN), human, the 21 C-terminal residues L573-L593 (PGRNC21) with A588G (PGRNC21*); numbers count from the start codon; also called the PGRN C-terminus; PGRNC alone; source: E. coli BL21 Star, purified (IMAC, HisPur Cobalt); not shown: ABD035, N-terminal, kept

Source: paper PMC11342335, “An anti-sortilin affibody-peptide fusion inhibits sortilin-mediated progranulin degradation” (Frontiers in Immunology, 2024)
